Consider one protein from patent US20190085093.

The target of data set [1] is FCHo1-C-3×DDK mutation Δ563-564, O14526.
Data set [2] addresses FCHo1-C-3×DDK mutation Δ531-589, O14526.

Sequence of FCHo1-C-3×DDK mutation Δ531-589, O14526 (O14526 whole entry, looked up, stated change not applied, tested part not stated): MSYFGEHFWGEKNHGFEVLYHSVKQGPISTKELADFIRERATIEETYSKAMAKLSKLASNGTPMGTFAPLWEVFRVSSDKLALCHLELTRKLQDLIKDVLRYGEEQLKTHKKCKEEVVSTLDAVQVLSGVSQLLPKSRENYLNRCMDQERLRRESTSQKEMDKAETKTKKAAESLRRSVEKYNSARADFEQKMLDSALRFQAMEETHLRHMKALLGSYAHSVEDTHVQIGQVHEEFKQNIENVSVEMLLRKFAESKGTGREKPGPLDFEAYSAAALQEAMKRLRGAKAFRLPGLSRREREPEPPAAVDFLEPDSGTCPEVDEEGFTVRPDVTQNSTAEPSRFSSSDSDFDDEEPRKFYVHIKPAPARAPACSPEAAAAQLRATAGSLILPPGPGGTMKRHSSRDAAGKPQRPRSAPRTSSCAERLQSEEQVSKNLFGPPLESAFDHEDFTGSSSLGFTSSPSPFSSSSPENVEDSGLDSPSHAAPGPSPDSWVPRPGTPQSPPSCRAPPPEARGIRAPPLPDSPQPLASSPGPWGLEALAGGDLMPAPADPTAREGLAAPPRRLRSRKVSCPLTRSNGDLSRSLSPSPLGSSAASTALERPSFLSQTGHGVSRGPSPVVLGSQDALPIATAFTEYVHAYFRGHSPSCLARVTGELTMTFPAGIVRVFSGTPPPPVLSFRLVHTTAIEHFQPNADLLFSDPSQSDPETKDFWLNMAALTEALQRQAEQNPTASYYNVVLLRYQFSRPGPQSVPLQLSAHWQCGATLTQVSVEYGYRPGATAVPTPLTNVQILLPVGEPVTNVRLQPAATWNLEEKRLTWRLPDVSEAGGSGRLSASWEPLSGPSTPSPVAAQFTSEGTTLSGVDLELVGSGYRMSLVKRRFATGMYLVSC
Sequence of FCHo1-C-3×DDK mutation Δ563-564, O14526 (O14526 whole entry, looked up, stated change not applied, tested part not stated): as above

B1: matrix metallopeptidase 9 (MMP-9) (protein)
chain: APRQRQSTLVLFPGDLRTNLTDRQLAEEYLYRYGYTRVAEMRGESKSLGPALLLLQKQLSLPETGELDSATLKAMRTPRCGVPDLGRFQTFEGDLKWHHHNITYWIQNYSEDLPRAVIDDAFARAFALWSAVTPLTFTRVYSRDADIVIQFGVAEHGDGYPFDGKDGLLAHAFPPGPGIQGDAHFDDDELWSLGKGVVVPTRFGNADGAACHFPFIFEGRSYSACTTDGRSDGLPWCSTTANYDTDDRFGFCPSERLYTQDGNADGKPCQFPFIFQGQSYSACTTDGRSDGYRWCATTANYDRDKLFGFCPTRADSTVMGGNSAGELCVFPFTFLGKEYSTCTSEGRGDGRLWCATTSNFDSDKKWGFCPDQGYSLFLVAAHEFGHALGLDHSSVPEALMYPMYRFTEGPPLHKDDVNGIRHLYGPRPEPEPRPPTTTTPQPTAPPTVCPTGPPTVHPSERPTAGPTGPPSAGPTGPPTAGPSTATTVPLSPVDDACNVNIFDAIAEIGNQLYLFKDGKYWRFSEGRGSRPQGPFLIADKWPALPRKLDSVFEERLSKKLFFFSGRQVWVYTGASVLGPRRLDKLGLGADVAQVTGALRSGRGKMLLFSGRRLWRFDVKAQMVDPRSASEVDRMFPGVPLDTHDVFQYREKAYFCQDRFYWRVSSRSELNQVDQVGYVTYDILQCPED
For the protein B1, the “zymography of MMP-9 after FLAG immunoprecipitation” value in data set [1] is “the activity of MMP-9 is suppressed in FCHo1 deletion mutations A563-564 and A531-589 compared with the wild-type”; in data set [2], “the activity of MMP-9 is suppressed in FCHo1 deletion mutations A563-564 and A531-589 compared with the wild-type”.
